According to article PMC6874091:

Target: 14-3-3 (endogenous, detected with a 14-3-3 antibody; isoform not told) (UniProt Q04917)
Assay: anti-FLAG co-immunoprecipitation, western blot densitometry
Details: HeLa cells, transfected; mean ± SD of three experiments; read off a plot

Chain of UniProt Q04917 (Q04917 whole entry, canonical isoform): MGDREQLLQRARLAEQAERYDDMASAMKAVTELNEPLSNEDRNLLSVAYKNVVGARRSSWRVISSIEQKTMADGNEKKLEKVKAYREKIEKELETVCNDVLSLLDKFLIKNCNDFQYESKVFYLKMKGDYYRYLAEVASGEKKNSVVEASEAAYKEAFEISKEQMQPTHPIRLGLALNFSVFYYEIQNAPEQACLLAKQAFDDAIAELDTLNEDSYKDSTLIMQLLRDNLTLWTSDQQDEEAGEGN

Substance: 3xFLAG-BPLF1 (amino acid residues 1-235), catalytically active N-terminal deconjugase domain of the Epstein-Barr virus large tegument protein BPLF1 (from UniProt P03186) D86R; D90R
- ratio to parent: 0.49
